Measurements: patent publication US9845340B2, “Peptides that specifically bind HGF receptor (cMet) and uses thereof” (Dyax Corp., priority 2003, dated 2017)

Legend:
cMet-Fc fusion protein = cMet-Fc fusion protein (Homo sapiens, UniProt P08581); assay: Protein phage ELISA: peptide-displaying phage binding to soluble cMet-Fc versus TRAIL-Fc; conditions: phage isolate; cMet-Fc vs. TRAIL-Fc
Procedure, shortened: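 Phage displaying selected peptides were incubated 2 h at room temperature on wells coated with 0.5 μg/mL cMet-Fc, with TRAIL-Fc coating as the unrelated-Fc specificity control.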

[1] = target: T1, 3T3 cells that over-express human cMet (Homo sapiens, UniProt P08581); assay: Whole cell ELISA of peptide-displaying phage; assay type: cell-based; conditions: phage isolate; 3T3 cells expressing human cMet vs. non-expressing 3T3 cells
T1 construct: expressed in transfected cells; host or cells: 3T3 cells
Procedure, shortened: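 Phage displaying peptides, pre-blocked 1 h at 37 °C, incubated 1 h at RT on glutaraldehyde-fixed (0.1%, 12 min, 37 °C) cMet-overexpressing 3T3 cells (10^5 per well). Binding read out by HRP anti-M13 antibody after PBST washing.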

T1 sequence (P08581 25-1390): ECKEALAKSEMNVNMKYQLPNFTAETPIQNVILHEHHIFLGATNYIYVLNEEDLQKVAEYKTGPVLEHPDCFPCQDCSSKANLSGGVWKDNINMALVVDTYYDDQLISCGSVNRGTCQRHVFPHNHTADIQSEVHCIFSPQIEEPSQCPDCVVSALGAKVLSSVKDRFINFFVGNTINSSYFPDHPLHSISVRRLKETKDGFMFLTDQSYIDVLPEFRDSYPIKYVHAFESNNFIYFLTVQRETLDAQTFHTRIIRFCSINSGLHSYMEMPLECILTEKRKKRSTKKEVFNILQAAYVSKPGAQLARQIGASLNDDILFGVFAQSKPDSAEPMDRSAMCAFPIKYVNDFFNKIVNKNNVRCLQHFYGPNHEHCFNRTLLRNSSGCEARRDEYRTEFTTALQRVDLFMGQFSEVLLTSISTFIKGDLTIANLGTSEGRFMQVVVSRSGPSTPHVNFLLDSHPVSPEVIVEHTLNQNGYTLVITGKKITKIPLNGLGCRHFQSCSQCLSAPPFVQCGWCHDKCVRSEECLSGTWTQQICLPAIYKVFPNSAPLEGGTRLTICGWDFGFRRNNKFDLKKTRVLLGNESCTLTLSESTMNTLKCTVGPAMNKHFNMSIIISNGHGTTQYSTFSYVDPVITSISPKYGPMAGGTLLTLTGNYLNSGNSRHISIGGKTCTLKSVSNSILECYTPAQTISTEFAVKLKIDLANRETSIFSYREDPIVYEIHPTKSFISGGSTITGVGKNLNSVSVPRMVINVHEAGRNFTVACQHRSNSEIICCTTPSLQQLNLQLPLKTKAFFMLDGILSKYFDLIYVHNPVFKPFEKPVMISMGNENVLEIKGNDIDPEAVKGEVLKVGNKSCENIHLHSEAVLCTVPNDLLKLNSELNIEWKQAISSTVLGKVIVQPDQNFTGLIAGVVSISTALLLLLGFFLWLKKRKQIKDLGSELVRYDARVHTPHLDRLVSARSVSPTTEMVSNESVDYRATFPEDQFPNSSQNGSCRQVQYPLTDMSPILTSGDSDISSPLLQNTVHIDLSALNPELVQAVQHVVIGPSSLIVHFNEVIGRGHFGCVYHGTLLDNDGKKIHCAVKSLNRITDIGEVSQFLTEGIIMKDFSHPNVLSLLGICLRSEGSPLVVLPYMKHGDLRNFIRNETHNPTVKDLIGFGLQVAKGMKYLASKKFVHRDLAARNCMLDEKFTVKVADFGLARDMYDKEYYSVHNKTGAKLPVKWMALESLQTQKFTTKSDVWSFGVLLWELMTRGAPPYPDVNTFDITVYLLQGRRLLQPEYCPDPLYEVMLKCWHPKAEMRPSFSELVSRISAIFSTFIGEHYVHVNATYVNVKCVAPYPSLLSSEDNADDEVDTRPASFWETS
Chain of cMet-Fc fusion protein (P08581 25-307 limits assumed): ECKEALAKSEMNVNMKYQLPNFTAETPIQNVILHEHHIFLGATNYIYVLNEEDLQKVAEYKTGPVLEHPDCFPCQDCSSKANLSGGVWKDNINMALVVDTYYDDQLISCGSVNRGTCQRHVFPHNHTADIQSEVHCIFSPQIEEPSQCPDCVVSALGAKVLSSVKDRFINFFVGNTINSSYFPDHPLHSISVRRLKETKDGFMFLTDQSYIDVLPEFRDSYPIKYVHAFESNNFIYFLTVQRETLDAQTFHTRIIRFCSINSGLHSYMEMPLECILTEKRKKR
Chain of cMet-Fc fusion protein (P08581 with tags, fused parts or gaps limits assumed): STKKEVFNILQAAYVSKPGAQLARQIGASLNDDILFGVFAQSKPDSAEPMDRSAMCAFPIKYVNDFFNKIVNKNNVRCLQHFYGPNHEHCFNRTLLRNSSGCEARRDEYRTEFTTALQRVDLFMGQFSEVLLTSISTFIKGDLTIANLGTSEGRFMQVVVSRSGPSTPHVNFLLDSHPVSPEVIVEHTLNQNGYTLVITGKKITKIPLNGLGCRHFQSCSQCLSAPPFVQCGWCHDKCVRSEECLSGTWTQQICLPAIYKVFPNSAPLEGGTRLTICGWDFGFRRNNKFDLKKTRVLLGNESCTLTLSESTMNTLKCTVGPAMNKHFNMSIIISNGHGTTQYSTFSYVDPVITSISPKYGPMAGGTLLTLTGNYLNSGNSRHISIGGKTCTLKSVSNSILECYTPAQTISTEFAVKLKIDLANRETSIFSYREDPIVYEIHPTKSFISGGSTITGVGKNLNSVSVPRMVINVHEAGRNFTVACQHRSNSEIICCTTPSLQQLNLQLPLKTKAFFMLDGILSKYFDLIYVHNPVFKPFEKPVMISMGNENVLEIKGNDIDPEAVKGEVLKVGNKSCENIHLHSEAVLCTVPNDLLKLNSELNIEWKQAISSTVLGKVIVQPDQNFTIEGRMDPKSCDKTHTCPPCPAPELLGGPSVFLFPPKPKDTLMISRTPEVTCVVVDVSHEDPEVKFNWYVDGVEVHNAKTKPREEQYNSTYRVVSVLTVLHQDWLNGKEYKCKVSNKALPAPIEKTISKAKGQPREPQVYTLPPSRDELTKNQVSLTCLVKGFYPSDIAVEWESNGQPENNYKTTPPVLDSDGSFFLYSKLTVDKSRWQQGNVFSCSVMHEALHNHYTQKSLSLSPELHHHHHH

Compound	Protein ELISA (cMet-Fc fusion protein) [fold over background]	WC ELISA [1] [fold over background]
AGQFYCSGPPTFQCIMIGT (Synthetically generated cMet-binding peptide sequence) [SEQ ID NO: 089]	12.4	1.23
AGKQWCVVWEETCDQLGT (Synthetically generated cMet-binding peptide sequence) [SEQ ID NO: 039]	3.7	1.33
GSSHLCNPEFCHFTAP (Synthetically generated cMet-binding peptide sequence) [SEQ ID NO: 003]	3.2	1.30
AGDWICHGPPMFECEWVGT (Synthetically generated cMet-binding peptide sequence) [SEQ ID NO: 058]	15.9	1.17
AGTVYCSWESSECWWVGT (Synthetically generated cMet-binding peptide sequence) [SEQ ID NO: 019]	3.9	1.37
AGETKCSGPPYFYCWMEGT (Synthetically generated cMet-binding peptide sequence) [SEQ ID NO: 093]	16.3	1.23
AGVNSCLGPPTFECYQMGT (Synthetically generated cMet-binding peptide sequence) [SEQ ID NO: 076]	5.7	1.20

The next lines start with the values.

Protein ELISA (cMet-Fc fusion protein) [fold over background]	WC ELISA [1] [fold over background]	Compound
3.1	1.37	GSFWNCTTDLGAMSDCGFFAP (Synthetically generated cMet-binding peptide sequence) [SEQ ID NO: 383]
5.7	1.33	CC[C@H](C)[C@H](NC(=O)[C@H](C)NC(=O)[C@H](CCC(=O)O)NC(=O)[C@H](C)NC(=O)[C@@H](NC(=O)CNC(=O)[C@@H](NC(=O)[C@H](CCC(N)=O)NC(=O)[C@H](C)NC(C)=O)C(C)C)[C@@H](C)O)C(=O)N[C@@H](CCSC)C(=O)N[C@@H](Cc1ccccc1)C(=O)N[C@@H](CO)C(=O)N[C@@H](CC(=O)O)C(=O)N[C@H](C(=O)N[C@@H](CCC(=O)O)C(=O)N[C@@H](CC(=O)O)C(=O)N[C@H](C(=O)NCC(=O)N[C@H](C(=O)N[C@@H](Cc1c[nH]cn1)C(=O)N[C@@H](CCCCN)C(=O)N[C@@H](Cc1ccccc1)C(=O)NCC(=O)NCC(=O)NCC(=O)N[C@@H](CCCCNC(=O)c1ccc2c(c1)C(=O)OC21c2ccc(O)cc2Oc2cc(O)ccc21)C(N)=O)C(C)C)[C@@H](C)O)C(C)C [SEQ ID NO: 459]
8.4	1.20	GDSYNCSWDSKTFEVTCLYADP (Synthetically generated cMet-binding peptide sequence) [SEQ ID NO: 393]
3.0	1.63	AQFMYEKEHYVMSISLPGLWFY (Synthetically generated cMet-binding peptide sequence) [SEQ ID NO: 486]
